# Measured values: patent publication US9751918B2, “Transgenic plants expressing cobalamin binding proteins” (XERAGENX LLC, priority 2001, dated 2017)
# How the values were obtained:
# [1] = Competitive binding of 57Co-labelled cobalamin versus unlabelled cobalamin; details: 57Co-cobalamin mixed with increasing non-radioactive cobalamin, bound fraction by gamma counter
# Description: (§1) Equal amounts of the respective proteins were added to a mixture containing a fixed amount of cobalt (57Co) labelled cobalamin mixed with increasing amounts of non-radioactive cobalamin or cobinamide (X axis). Free and bound ligand were separated and the amount of 57Co attached to the protein was measured in a gamma counter. The 57Co fraction bound relative to the amount of 57Co bound in the absence of unlabeled cobalamin or cobinamide was calculated (Y axis).
# (§2) Both recombinant proteins were extracted form transgenic Arabidopsis thaliana plants. Equal amounts of the respective proteins were added to a mixture containing a fixed amount of cobalt (57Co) labeled cobalamin mixed with increasing amounts of nonradioactive cobalamin or cobinamide (X axis). Free and bound ligand was separated and the amount of 57Co attached to the protein was measured in a gamma counter. The 57Co fraction bound relative to the amount of 57Co bound in the absence of unlabelled cobalamin or cobinamide was calculated (Y axis).
# (§3) One kilogram of three week old IF-plants was homogenization with 2 liters of phosphate buffer and clarified by centrifugation. This extract contained 100 mg recombinant human IF with CBC. This IF had specificity for cobalamin binding whereas the analog cobinamid was not bound by the IF as tested by the method described by (15).
# [2] = Competitive binding of 57Co-labelled cobalamin versus unlabelled cobinamide; details: 57Co-cobalamin mixed with increasing non-radioactive cobinamide; bound fraction by gamma counter
# Description: as §1, §2, §3
# [3] = biological target: human intestinal receptor protein cubilin (Homo sapiens, UniProt O60494); assay: BIAcore 2000 binding of intrinsic factor to immobilized cubilin; details: for binding to cubilin, holo-form: intrinsic factor saturated with vitamin B12 (holo-form); for binding to cubilin, apo-form: intrinsic factor unsaturated with vitamin B12 (apo-form)
# Chain of human intestinal receptor protein cubilin (O60494 36-3623): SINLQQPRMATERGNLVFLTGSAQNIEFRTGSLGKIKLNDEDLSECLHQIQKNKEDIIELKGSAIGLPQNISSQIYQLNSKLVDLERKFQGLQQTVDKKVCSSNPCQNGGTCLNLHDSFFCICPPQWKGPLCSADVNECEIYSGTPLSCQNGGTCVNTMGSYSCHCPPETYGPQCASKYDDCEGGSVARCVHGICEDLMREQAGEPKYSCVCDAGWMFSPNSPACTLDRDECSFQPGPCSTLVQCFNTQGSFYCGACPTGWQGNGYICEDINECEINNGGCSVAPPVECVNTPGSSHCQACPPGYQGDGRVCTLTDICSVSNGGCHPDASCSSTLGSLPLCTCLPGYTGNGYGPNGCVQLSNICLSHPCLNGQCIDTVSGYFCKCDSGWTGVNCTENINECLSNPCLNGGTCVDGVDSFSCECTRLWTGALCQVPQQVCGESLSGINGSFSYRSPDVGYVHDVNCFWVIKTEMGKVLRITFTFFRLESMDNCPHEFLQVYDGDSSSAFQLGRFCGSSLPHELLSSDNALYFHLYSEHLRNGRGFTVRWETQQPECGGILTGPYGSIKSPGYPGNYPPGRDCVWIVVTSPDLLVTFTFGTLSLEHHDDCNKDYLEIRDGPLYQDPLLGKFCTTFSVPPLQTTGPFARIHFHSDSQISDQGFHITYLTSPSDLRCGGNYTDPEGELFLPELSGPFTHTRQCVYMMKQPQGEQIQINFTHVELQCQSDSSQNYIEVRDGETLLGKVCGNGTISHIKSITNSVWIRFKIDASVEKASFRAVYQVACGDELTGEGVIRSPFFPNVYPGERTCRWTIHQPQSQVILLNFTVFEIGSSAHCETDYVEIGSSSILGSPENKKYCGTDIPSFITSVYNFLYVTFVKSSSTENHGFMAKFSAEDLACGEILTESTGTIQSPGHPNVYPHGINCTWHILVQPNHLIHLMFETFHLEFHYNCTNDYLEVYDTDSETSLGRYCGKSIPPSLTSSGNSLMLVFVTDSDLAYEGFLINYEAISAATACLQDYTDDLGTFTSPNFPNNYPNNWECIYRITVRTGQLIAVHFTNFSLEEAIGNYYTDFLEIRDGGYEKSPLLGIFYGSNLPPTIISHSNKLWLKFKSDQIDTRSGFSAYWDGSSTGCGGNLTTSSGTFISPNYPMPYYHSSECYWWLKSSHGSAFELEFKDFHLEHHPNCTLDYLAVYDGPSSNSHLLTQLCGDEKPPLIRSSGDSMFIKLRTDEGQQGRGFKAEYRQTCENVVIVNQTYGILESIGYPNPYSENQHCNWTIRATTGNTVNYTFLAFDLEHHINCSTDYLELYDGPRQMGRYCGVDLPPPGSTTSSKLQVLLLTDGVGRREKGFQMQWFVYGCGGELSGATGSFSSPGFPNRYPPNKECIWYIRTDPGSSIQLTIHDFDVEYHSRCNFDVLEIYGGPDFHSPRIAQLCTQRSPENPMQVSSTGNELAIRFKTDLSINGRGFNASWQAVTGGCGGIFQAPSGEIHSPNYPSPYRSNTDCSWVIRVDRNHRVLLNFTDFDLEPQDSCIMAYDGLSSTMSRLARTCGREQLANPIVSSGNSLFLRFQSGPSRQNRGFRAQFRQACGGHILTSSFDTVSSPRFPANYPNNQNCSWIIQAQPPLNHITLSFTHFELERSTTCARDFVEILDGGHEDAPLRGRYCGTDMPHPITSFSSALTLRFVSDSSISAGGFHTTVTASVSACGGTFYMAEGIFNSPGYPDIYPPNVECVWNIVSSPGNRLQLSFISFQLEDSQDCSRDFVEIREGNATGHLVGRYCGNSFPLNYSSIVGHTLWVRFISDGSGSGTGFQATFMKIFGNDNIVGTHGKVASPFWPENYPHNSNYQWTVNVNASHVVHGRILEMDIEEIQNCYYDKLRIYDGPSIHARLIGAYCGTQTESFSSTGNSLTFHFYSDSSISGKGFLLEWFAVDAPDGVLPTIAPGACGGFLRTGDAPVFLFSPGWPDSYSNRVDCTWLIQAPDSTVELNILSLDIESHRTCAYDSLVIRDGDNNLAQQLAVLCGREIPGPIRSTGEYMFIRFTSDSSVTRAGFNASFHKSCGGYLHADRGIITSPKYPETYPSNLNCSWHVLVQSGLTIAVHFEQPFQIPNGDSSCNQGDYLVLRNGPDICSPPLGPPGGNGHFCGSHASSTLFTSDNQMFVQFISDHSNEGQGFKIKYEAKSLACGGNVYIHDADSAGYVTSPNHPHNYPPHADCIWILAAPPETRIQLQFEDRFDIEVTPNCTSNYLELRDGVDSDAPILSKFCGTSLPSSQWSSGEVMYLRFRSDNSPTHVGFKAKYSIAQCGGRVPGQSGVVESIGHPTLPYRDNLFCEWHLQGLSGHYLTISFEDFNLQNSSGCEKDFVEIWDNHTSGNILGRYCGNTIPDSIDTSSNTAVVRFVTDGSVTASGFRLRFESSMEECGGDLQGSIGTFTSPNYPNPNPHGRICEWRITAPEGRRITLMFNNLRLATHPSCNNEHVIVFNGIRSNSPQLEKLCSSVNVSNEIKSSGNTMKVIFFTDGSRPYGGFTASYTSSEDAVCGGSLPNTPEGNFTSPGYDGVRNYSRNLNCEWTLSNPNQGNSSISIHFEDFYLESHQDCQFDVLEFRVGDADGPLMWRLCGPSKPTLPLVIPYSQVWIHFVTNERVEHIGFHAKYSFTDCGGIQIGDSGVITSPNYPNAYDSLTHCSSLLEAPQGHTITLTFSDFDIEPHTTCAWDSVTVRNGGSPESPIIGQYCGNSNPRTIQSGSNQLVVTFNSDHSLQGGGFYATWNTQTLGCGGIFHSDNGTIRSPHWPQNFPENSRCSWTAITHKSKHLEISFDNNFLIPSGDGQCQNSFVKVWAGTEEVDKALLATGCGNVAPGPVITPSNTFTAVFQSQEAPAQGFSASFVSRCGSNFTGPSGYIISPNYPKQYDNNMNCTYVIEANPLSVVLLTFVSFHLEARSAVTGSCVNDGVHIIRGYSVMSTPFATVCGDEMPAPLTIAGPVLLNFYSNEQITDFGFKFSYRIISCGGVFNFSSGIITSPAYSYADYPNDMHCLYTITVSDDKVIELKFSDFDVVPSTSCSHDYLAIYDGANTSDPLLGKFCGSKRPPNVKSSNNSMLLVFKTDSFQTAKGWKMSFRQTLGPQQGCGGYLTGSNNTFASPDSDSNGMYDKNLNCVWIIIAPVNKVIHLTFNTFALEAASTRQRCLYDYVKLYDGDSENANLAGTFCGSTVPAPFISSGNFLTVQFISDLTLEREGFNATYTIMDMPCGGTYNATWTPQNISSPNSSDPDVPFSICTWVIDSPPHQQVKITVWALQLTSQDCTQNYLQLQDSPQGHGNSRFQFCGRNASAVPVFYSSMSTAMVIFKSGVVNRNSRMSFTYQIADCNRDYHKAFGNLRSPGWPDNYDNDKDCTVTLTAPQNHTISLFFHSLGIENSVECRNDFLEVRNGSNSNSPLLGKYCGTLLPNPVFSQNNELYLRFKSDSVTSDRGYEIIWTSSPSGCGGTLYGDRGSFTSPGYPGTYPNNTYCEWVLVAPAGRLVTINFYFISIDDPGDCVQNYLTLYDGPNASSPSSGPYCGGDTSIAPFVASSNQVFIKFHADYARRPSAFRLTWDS
# Chain of human intestinal receptor protein cubilin (P27352 19-417 partner): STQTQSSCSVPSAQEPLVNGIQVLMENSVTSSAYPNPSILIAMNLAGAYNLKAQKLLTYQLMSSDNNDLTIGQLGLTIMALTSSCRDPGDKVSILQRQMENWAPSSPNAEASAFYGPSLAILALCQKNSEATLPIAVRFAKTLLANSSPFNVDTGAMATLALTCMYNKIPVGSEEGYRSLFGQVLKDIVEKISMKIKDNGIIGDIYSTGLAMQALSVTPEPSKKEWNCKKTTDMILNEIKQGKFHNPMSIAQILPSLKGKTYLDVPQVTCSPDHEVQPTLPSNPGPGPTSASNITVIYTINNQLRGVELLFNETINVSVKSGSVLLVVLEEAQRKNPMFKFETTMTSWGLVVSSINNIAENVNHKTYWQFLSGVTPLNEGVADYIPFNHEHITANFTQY
# Description: The binding between intrinsic factor and its receptor cubilin was analysed employing a BIAcore 2000 instrument (Biacore AB, Uppsala, Sweden). An increase in Resp. Diff. (Y axis) indicates binding between intrinsic factor and cubilin. At time approximately 100 a solution with intrinsic factor is added to the immobilized cubilin. Intrinsic factor was isolated from transgenic plants, human gastric juice and hog stomach. Preparations of vitamin B 12 saturated and vitamin B12 unsaturated intrinsic factor were used. At time approximately 600 intrinsic factor is removed from the solution and the dissociation between cubilin and intrinsic factor is followed.
# [4] = listed as native intrinsic factor
# [5] = listed as recombinant intrinsic factor
Molecule,ability to bind cobalamin [1],ability to bind cobalamin ([1]; listed as native IF),ability to bind cobinamid [2],"binding to cubilin, holo-form ([3]; listed as human gastric IF)","binding to cubilin, holo-form [3, 4]","binding to cubilin, apo-form ([3]; listed as human gastric IF)","binding to cubilin, apo-form [3, 4]",ability to bind cobalamin ([1]; listed as recombinant IF),ability to bind cobalamin ([1]; listed as recombinant human intrinsic factor),"binding to cubilin, holo-form [3]","binding to cubilin, holo-form [3, 5]","binding to cubilin, apo-form [3]","binding to cubilin, apo-form [3, 5]",ability to bind cobalamin ([1]; listed as recombinant human transcobalamin)
"native human gastric IF: Native intrinsic factor present in / isolated from human gastric juice, used for comparison [reference compound]",specificity for binding Cbl,specificity for binding cobalamin,not cobinamid,bind to the cubulin receptor,binds to cubilin,only when in holo-form,only when saturated with vitamin B12,,,,,,,
rhIF from plants: Recombinant human intrinsic factor extracted from transgenic Arabidopsis thaliana plants (mature sequence SEQ ID NO:4),specificity for binding Cbl,,not cobinamid,,,,,specificity for binding cobalamin,bind cobalamin,binds,binds to cubilin,does not bind,only when saturated with vitamin B12,
"rhTC: Recombinant human transcobalamin extracted from transgenic Arabidopsis thaliana plants (mature sequence SEQ ID NO:11) (protein, plant-expressed; homo sapiens) EMCEIPEMDSHLVEKLGQHLLPWMDRLSLEHLNPSIYVGLRLSSLQAGTKEDLYLHSLKLGYQQCLLGSAFSEDDGDCQGKPSMGQLALYLLALRANCEFVRGHKGDRLVSQLKWFLEDEKRAIGHDHKGHPHTSYYQYGLGILALCLHQKRVHDSVVDKLLYAVEPFHQGHHSVDTAAMAGLAFTCLKRSNFNPGRRQRITMAIRTVREEILKAQTPEGHFGNVYSTPLALQFLMTSPMPGAELGTACLKARVALLASLQDGAFQNALMISQLLPVLNHKTYIDLIFPDCLAPRVMLEPAAETIPQTQEIISVTLQVLSLLPPYRQSISVLAGSTVEDVLKKAHELGGFTYETQASLSGPYLTSVMGKAAGEREFWQLLRDPNTPLLQGIADYRPKDGETIELRLVSW",binds to Cbl,,not cobinamid,,,,,,,,,,,bind cobalamin
